{"source": "paper PMC6083498", "about": "“F-CphI represents a new homing endonuclease family using the Endo VII catalytic motif”", "binders": {"B1": {"name": "SBM4-60Top duplex (dsDNA)", "DNA 1": "TGGTCTGGGTATGGAAGTGATGCACGAGCGCAACGCTCACAACTTCCCTCTCGACCTTGC", "DNA 2": "GCAAGGTCGAGAGGGAAGTTGTGAGCGTTGCGCTCGTGCATCACTTCCATACCCAGACCA"}}, "target": "T1, F-CphI (cyanophage S-PM2, UniProt Q7Y4H4 1-142)", "T1 sequence": "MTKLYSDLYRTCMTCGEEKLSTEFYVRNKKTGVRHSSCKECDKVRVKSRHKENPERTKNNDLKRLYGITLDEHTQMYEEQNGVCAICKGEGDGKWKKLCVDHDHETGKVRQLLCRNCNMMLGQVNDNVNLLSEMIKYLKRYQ", "assay": "EMSA; no Mg2+ added; Kd value only in figure; EMSA: 10 mM Tris-HCl pH 8.0, 2% glycerol, 2 ug/ml poly-dIdC, 2 ug/ml BSA, 0.2 mM DTT, on ice 15 min, 2 nM labeled DNA; 8% native PAGE in 1X TBE", "details": "protein: recombinant; tags: C-terminal Myc-His (pBAD/Myc-HisB; in frame with downstream His-tag); label: 5'-32P on top strand; blunt"}
{"binder": "B1", "values": [{"measurement": "binding result", "result": "binds"}]}
